# Residues, ends and D or L forms follow the SMILES beside them. No end group written: not given here. *: point of attachment. DOTA = O=C(O)CN1CCN(CC(=O)O)CCN(CC(=O)*)CCN(CC(=O)O)CC1
# Assays:
# [1] = set-up: species or system mice; conditions: mouse, in vivo, iv
# Method: Gallium-68 (^68Ga) was eluted from the generators onsite at the time of the experiments. Radiolabelling of the respective DOTAMA-CBP compound was performed as follows: DOTAMA-CBPs were dissolved in water (Baxter water for irrigation) to a final concentration 4 mg/mL. In an Eppendorf, 25 µL of the DOTAMA-CBP solution was added. Sodium acetate (30%NaOAc, 20 µL, pH 5) buffer was added to this solution followed by the addition of 200 µL ^68Ga (~100 MBq). The solution was then heated to 50 °C for 30 min. After the reaction was removed from heat, the pH was adjusted to pH 7 by adding sodium bicarbonate (1 M, 10 µL). Labelling efficiency was followed by radio thin-layer chromatography (TLC) and HPLC. Radio TLCs were performed using silica gel IBF-2 Baker plates, 10% NH4OAc 50:50 in MeOH with 5 µL of the sample added. For the HPLC, a C18 column was used (MeCN + 0.1% TFA and H2O + 0.1% TFA, gradient) with 10 µL of the sample measured.
# In vivo biodistribution imaging was carried out using a positron emission tomography/computed tomography (PET/CT) scanner (NanoPET/CT scanner; Mediso, Hungary. Male apolipoprotein E knockout (ApoE^−/−) were anesthetised with 4% isoflurane mixed with 1% medical oxygen and maintained at 2% isoflurane for the PET/CT experiment. Mice were injected intravenously (i.v.) with either ^68Ga-DOTAMA-CBP1 or ^68Ga-DOTAMA-CBP2 (12MBq/mouse for both probes). To verify anatomical structures, CT images were obtained after the PET imaging with a 55 kVp voltage. PET images were acquired continuously up to 90 min post-injection with a 256 × 256 matrix size and a resolution of 1 mm/pixel. PET and CT images were reconstructed using the manufacturer software with a voxel size of 0.4 mm and analysed with a VivoQuant 2.5 software (Invicro, Boston, MA, USA). The data acquired with the CBP1 and CBP2 imaging probes were reconstructed in 15-minute bins up to 90 min. The PET/CT images were merged using the software’s automated fusion function. Additionally, the software was used for region-of-Interest (ROI) analysis and results were reported as %ID/g for each organ. Following the in vivo PET/CT imaging, the animals were euthanised and tissues extracted for ex vivo gamma counting (1282 CompuGamma gamma counting, LKB Wallac, Finland).
# COL3 = biological target: T1, COL3 (Mus musculus, UniProt P08121); experiment: In vivo MRI of the aortic wall in a murine model of vascular remodelling; conditions: ApoE−/− mice after aortic injury and 12 weeks high-fat diet, i.v. 0.2 mmol/kg, LGE MRI at 3 T up to 2 h post-injection
# T1 construct: from tissue; host or cells: infarcted left-ventricular myocardium of female CD1 mice, in vivo
# T1 sequence (P08121 155-1219 limits assumed): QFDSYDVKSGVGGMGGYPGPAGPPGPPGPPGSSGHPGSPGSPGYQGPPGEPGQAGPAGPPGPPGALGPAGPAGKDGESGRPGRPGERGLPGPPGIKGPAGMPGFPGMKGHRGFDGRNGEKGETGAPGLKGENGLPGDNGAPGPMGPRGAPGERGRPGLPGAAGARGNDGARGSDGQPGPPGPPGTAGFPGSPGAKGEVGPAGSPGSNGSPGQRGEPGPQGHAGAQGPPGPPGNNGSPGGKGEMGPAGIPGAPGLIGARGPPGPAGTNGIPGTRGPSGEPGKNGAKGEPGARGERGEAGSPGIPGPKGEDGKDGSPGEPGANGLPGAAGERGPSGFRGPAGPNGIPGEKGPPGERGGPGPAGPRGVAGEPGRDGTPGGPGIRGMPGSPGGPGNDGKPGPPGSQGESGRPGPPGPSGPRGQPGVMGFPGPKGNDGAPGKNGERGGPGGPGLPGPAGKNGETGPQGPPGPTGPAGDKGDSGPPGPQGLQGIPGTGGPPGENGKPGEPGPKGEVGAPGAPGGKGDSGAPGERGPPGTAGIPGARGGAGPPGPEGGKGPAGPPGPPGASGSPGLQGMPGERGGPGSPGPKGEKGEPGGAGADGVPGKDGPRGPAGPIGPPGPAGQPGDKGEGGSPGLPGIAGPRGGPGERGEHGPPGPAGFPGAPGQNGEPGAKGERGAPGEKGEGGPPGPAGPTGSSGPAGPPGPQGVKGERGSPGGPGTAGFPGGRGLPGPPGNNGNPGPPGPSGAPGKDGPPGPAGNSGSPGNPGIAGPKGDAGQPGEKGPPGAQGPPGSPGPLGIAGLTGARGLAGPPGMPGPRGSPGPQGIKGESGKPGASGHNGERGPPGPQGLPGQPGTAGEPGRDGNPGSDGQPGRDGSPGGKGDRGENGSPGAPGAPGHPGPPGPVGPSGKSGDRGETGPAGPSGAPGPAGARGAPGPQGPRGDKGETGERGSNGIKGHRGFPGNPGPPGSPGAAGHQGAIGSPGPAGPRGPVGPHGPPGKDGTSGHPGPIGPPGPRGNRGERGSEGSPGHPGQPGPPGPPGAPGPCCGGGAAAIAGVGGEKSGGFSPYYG
# Description: Male ApoE^−/− mice were bred in-house and underwent surgery at 8–10 weeks of age (n = 6). Mice were anesthetised with 4% isoflurane mixed with 1% medical oxygen and anaesthesia was maintained at 2% during the surgery as previously reported. Briefly, mice underwent a laparotomy to expose the abdominal aorta, renal and iliac arteries. Two ligatures were inserted around the aorta (surgical silk, size 4–0, Aragó, Zaragoza, Spain), the first below the renal arteries and the second above the iliac bifurcation. A 30 G needle was introduced into the abdominal aorta at the level of the iliac bifurcation, via an aortic puncture. 1 mL of saline was infused into the aorta in three boluses. Finally, the needle was removed, and the puncture was repaired. The muscle and skin incisions were sutured (5-0 Vicryl, Ethicon Inc, Somerville, NJ), and the animals were allowed to recover. Mice were switched to a high-fat diet (HFD) containing 21% fat from lard and 0.15% (wt/wt) cholesterol (Special Diets Services, Witham, United Kingdom), on day 2 post-surgery for 12 weeks prior to the imaging experiments.
# Anaesthesia was induced with 4% and maintained with 1–2% isoflurane during the MRI experiments. Mice (n = 3 per group) were placed supine on a single-loop surface coil (diameter = 47 mm) and the abdominal aorta was imaged up to 2 h post-injection of the monomeric (i.v. 0.2 mmol/kg, 0.2 mmol/kg Gd), the next day with the corresponding tetrameric collagen-binding probe (i.v 0.2 mmol/kg, 0.8 mmol/kg Gd) and the 3rd day using the scrambled probes (n = 2–3 per probe; i.v. 0.2 mmol/kg). This timeline ensures complete washout of one probe from the tissue before the administration of another probe. […]
# Collagen type III (COL3) = biological target: T2, Collagen type III (COL3) (Homo sapiens, UniProt P02461); experiment: Eu(III) time-resolved fluorescence plate assay
# T2 chain: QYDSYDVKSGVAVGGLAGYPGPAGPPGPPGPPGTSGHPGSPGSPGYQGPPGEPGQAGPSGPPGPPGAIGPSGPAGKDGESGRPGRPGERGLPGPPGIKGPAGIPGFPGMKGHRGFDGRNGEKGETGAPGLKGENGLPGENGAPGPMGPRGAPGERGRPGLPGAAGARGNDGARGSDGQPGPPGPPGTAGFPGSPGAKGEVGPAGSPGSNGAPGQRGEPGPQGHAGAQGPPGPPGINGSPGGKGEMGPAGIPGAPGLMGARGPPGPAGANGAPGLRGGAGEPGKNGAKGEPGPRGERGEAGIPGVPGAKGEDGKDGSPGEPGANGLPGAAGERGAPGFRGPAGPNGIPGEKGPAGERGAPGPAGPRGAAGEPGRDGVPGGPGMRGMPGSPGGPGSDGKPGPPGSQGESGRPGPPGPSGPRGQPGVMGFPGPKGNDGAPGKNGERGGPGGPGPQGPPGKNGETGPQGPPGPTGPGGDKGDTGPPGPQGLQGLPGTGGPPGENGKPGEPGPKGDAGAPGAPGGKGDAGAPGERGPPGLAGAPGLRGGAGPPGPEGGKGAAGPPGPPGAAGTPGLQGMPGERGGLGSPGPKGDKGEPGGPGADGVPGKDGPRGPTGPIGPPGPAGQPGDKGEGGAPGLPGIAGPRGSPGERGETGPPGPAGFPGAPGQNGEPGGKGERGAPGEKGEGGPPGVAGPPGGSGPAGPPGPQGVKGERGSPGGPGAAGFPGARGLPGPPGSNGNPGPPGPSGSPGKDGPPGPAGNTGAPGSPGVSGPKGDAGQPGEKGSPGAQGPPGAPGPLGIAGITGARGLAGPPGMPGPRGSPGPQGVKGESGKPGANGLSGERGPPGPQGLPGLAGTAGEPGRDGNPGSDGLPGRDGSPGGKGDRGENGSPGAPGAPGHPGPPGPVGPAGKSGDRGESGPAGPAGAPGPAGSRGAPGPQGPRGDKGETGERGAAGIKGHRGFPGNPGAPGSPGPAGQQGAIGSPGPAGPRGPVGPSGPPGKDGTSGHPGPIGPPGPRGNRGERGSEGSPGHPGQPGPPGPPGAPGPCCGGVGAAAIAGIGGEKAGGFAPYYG
Molecule,route of elimination (in words) [1],time within which most of the probe is eliminated from the blood (first phase clearance) [1],unspecific uptake in tissues (in words) [1],signal enhancement of the remodelled aortic wall (in words) (COL3),Kd (Collagen type III (COL3))
"CC(C)[C@H](NC(=O)[C@H](CCC(=O)O)NC(=O)[C@H](CO)NC(=O)[C@H](CCCCN)NC(=O)[C@H](CCCNC(=N)N)NC(=O)[C@H](C)NC(=O)[C@H](CC(=O)O)NC(=O)CN1CCN(CC(=O)O)CCN(CC(=O)O)CCN(CC(=O)O)CC1)C(=O)N[C@@H](CCC(N)=O)C(=O)N[C@@H](CCCCN)C(=O)O [^68Ga-DOTAMA-CBP1, metal not drawn] ({DOTA}-DARKSEVQK-OH)",renal excretion,15 to 30 min,no significant unspecific uptake in tissues,,
"CSCC[C@H](NC(=O)[C@H](CCCNC(=N)N)NC(=O)[C@H](CC(C)C)NC(=O)[C@@H]1CCCN1C(=O)[C@H](Cc1ccccc1)NC(=O)[C@H](CCC(=O)O)NC(=O)[C@@H](NC(=O)CN1CCN(CC(=O)O)CCN(CC(=O)O)CCN(CC(=O)O)CC1)[C@@H](C)O)C(=O)N[C@@H](CCCNC(=N)N)C(=O)N[C@@H](CC(=O)O)C(=O)N[C@@H](Cc1c[nH]c2ccccc12)C(=O)N[C@@H](CC(C)C)C(=O)N[C@@H](CCCCN)C(=O)N[C@@H](CC(N)=O)C(=O)O [^68Ga-DOTAMA-CBP2, metal not drawn] ({DOTA}-TEFPLRMRDWLKN-OH)",renal excretion,15 to 30 min,no significant unspecific uptake in tissues,,
"Ac-C-EWFMKDRLLNRPT [[Gd-DOTAMA]4-SccCBP2, scrambled tetrameric Gd probe (Ac-C-…), negative control]",,,,also showed signal enhancement,
DARKSEVQK (not fully specified (N-terminus); also: Eu complexed by N-terminal DOTAMA) [Eu-DOTAMA-CBP1],,,,,5.3 µM
TEFPLRMRDWLKN (not fully specified (N-terminus); also: Eu complexed by N-terminal DOTAMA) [Eu-DOTAMA-CBP2],,,,,4.8 µM

# Reference: PMC11408249, “Non-invasive in vivo imaging of changes in Collagen III turnover in myocardial fibrosis” (npj Imaging, 2024)
